Reference: US20180155427A1 (Novartis, published 2018)
Residue numbers refer to the chain shown, from its start. Numbers in names are those of the source. Blank lines part the entries; values can stand above or below the binder they belong to.

Columns and labels:
[1] = target: T1, human PD-1 expressed on cells (human, UniProt Q15116 25-288); experiment: FACS competition binding on PD-1 expressing Jurkat cells; competitor: fluorescently labeled murine mAb BAP049; MFI of bound labeled mAb
T1 construct: whole, on cells; Treated as one molecule; also called PD-1 expressing Jurkat cells; human PD-1 transfected Jurkat cells
Protocol: The concentration of the murine mAb was determined by OD280 measurement, whereas the chimeric mAb concentrations in supernatants were determined with an ELISA using an IgG4 standard.

[2] = target: T1, human PD-1 expressed on cells; experiment: competition binding assay on human PD-1-expressing 300.19 cells, competitor PD-L2; competitor PD-L2
[3] = target: human PD-1-Ig fusion protein (human, UniProt Q15116 25-167); experiment: ELISA
[4] = target: T1, human PD-1 expressed on cells; experiment: FACS blocking assay on PD-1-expressing 300.19 cells; blocked ligand at constant concentration: PD-L1-huIgG1 Fc fusion protein (legend paragraph 211 names 'PD-L1-Ig and PD-L2-Ig' for FIG. 8A); bound ligand detected with PE anti-human IgG F(ab')2
Protocol: Incubation was at 4° C. for 30 min. Bound ligand fusion proteins were detected with PE-conjugated F(ab′)2 fragment of goat anti-human IgG which doesn't recognize IgG4 mAbs (Southern Biotech 2043-09), and flow cytometry.

[5] = target: T1, human PD-1 expressed on cells; experiment: competition binding assay on human PD-1-expressing 300.19 cells, competitor PD-L1; competitor PD-L1
[6] = target: T2, cynomolgus PD-1 expressed on cells (cynomolgus, UniProt B0LAJ3 25-288); experiment: FACS on cells transfected with cynomolgus PD-1
T2 construct: also called cynomolgus T cells; cells transfected with cynomolgus PD-1

[7] = target: T2, cynomolgus PD-1 expressed on cells; experiment: FACS on cynomolgus T cells
[8] = target: T1, human PD-1 expressed on cells; experiment: FACS on human PD-1 transfected Jurkat cells
[9] = target: T1, human PD-1 expressed on cells; experiment: rank among the 16 humanized clones in competition with Alexa 488-labeled murine mAb BAP049 on PD-1-expressing 300.19 cells, second experiment
Protocol: (§1) Incubations with the mAb mixtures having different concentration ratios of test mAb to labeled mAb was at 4° C. for 30 min. Bound labeled murine mAb was then quantified using a FACS machine. The experiment was performed twice.

[10] = target: T1, human PD-1 expressed on cells; experiment: rank among the 16 humanized clones by FACS binding data on PD-1-expressing cells
[11] = target: T1, human PD-1 expressed on cells; experiment: rank among the 16 humanized clones in competition with Alexa 488-labeled murine mAb BAP049 on PD-1-expressing 300.19 cells, first experiment
Protocol: as §1

T1 sequence (Q15116 25-288): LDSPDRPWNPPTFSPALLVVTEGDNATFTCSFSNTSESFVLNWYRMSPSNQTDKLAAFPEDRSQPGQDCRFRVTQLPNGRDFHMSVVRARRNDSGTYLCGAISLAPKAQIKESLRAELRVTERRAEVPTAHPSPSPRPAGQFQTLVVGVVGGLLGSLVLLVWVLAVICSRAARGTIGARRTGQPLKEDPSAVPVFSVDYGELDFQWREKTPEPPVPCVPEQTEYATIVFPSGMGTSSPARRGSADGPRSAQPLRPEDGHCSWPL
T2 sequence (B0LAJ3 entry or part of it limits assumed): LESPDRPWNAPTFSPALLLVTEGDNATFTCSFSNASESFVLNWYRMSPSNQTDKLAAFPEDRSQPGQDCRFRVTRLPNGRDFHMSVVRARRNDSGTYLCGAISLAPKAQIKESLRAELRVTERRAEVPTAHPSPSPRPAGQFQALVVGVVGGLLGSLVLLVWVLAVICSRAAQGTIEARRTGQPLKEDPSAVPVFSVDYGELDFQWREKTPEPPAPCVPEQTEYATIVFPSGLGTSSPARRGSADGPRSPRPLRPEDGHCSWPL
human PD-1-Ig fusion protein, sequence (Q15116 25-167): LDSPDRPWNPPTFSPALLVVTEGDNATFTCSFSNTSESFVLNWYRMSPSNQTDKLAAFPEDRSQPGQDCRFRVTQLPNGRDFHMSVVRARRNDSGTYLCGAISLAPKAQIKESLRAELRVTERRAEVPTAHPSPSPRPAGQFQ

- IC50 [2]: 0.9 nM
- Kd [3]: 0.04 nM
- IC50 (read off the curve) [4]: ~0.6 µg/mL
- IC50 [5]: 0.3 nM
- Kd [6]: 0.6 nM
- Kd [7]: 0.4 nM
- Kd [8]: 0.06 nM
B2: murine anti-PD-1 monoclonal antibody BAP049 (antibody, V domains shown)
VH: QVQLQQSGSELVRPGASVKLSCKASGYTFTTYWMHWVRQRPGQGLEWIGNIYPGTGGSNFDEKFKNRTSLTVDTSSTTAYMHLASLTSEDSAVYYCTRWTTGTGAYWGQGTLVTVSA
VL: DIVMTQSPSSLTVTAGEKVTMSCKSSQSLLDSGNQKNFLTWYQQKPGQPPKLLIFWASTRESGVPDRFTGSGSVTDFTLTISSVQAEDLAVYYCQNDYSYPCTFGGGTKLEIK
notes: the murine constant regions are not; also called murine mAb BAP049; Mu mAb

- IC50 (read off the curve) [4]: ~1 µg/mL
- Competition Binding 2nd exp. (rank) [9]: > 4
- Ranking FACS data [10]: 5
- Competition Binding 1st exp. (rank) [11]: 5
B5: humanized mAb BAP049-hum05 (antibody, human IgG4 S228P, kappa, V domains shown)
VH: EVQLVQSGAEVKKPGESLRISCKGSGYTFTTYWMHWVRQATGQGLEWMGNIYPGTGGSNFDEKFKNRVTITADKSTSTAYMELSSLRSEDTAVYYCTRWTTGTGAYWGQGTTVTVSS
VL: EIVLTQSPATLSLSPGERATLSCKSSQSLLDSGNQKNFLTWYQQKPGKAPKLLIYWASTRESGVPSRFSGSGSGTDFTFTISSLQPEDIATYYCQNDYSYPYTFGQGTKVEIKR
notes: Human IgG4(S228P), human kappa; tested as concentrated supernatant of transiently transfected CHO cells; also called Clone No. 05

- IC50 (read off the curve) [4]: ~1 µg/mL
- Competition Binding 2nd exp. (rank) [9]: > 4
- Ranking FACS data [10]: 7
- Competition Binding 1st exp. (rank) [11]: 6
B6: humanized mAb BAP049-hum10 (antibody, human IgG4 S228P, kappa)
heavy: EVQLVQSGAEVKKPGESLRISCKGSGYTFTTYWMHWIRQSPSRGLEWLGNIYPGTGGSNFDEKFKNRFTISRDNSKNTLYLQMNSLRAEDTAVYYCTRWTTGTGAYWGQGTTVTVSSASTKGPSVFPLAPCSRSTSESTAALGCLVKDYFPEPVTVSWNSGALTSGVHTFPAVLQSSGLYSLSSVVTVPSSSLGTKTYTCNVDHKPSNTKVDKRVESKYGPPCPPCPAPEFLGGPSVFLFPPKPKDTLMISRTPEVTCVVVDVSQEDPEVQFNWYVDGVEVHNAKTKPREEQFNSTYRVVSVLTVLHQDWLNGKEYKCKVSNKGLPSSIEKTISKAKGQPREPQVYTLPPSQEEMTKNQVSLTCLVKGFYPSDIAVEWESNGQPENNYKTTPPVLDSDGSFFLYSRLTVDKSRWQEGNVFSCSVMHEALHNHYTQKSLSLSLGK
light: EIVLTQSPATLSLSPGERATLSCKSSQSLLDSGNQKNFLTWYQQKPGQAPRLLIYWASTRESGVPSRFSGSGSGTDFTFTISSLEAEDAATYYCQNDYSYPYTFGQGTKVEIKRTVAAPSVFIFPPSDEQLKSGTASVVCLLNNFYPREAKVQWKVDNALQSGNSQESVTEQDSKDSTYSLSSTLTLSKADYEKHKVYACEVTHQGLSSPVTKSFNRGEC
notes: Human IgG4(S228P), human kappa; tested as concentrated supernatant of transiently transfected CHO cells; also called Clone No. 10

Continued, binder first:

B1: chimeric antibody BAP049-chi (Ser) (antibody, human IgG4 S228P, kappa, V domains shown)
VH: B2 VH with L112T, A117S
VL: DIVMTQSPSSLTVTAGEKVTMSCKSSQSLLDSGNQKNFLTWYQQKPGQPPKLLIFWASTRESGVPDRFTGSGSVTDFTLTISSVQAEDLAVYYCQNDYSYPSTFGQGTKVEIKR
notes: also called Chi mAb (Ser)
- binding result [1]: binds

B3: chimeric antibody BAP049-chi (Tyr) (antibody, human IgG4 S228P, kappa, V domains shown)
VH: B2 VH with L112T, A117S
VL: B1 VL with S102Y
notes: Murine variable regions, human IgG4(S228P), human kappa; also called BAP049-chi-Y; Chi mAb (Tyr)
- IC50 (read off the curve) [4]: ~0.8 µg/mL

B4: humanized mAb BAP049-hum01 (antibody, human IgG4 S228P, kappa, V domains shown)
VH: B5 VH
VL: B5 VL with K48Q, K51R, D76E, F79L, E87D, I89F
notes: Human IgG4(S228P), human kappa; tested as concentrated supernatant of transiently transfected CHO cells; also called Clone No. 01
- IC50 (read off the curve) [4]: ~1 µg/mL
- Competition Binding 2nd exp. (rank) [9]: 2
- Ranking FACS data [10]: 2
- Competition Binding 1st exp. (rank) [11]: 7
